# Source: article PMC12417186
# Columns and labels:
# [1] = target: C3b (commercial), Complement Technology (human) (UniProt P01024); assay: SPR; on-chip convertase assay: 600 nM FB and 100 nM FD injected 3 min over biotinylated C3b on SA chip, 10 min dissociation; 25°C; PBS, 0.05% Tween20, 1 mM MgCl2; exponential decay fit of 200-780 s; mean of three curves; 'estimated'
# [2] = target: C3b purified from plasma of donor D1 by the novel direct method (human) (UniProt P01024); assay: as above
# [3] = target: C3b purified from plasma of donor D2 by the novel direct method (human) (UniProt P01024); assay: as above
# [4] = target: C3b purified from plasma of donor D3 by the novel direct method (human) (UniProt P01024); assay: as above
# [5] = target: C3b (commercial), Complement Technology (human) (UniProt P01024); assay: SPR; C3b biotinylated at the thioester sulfhydryl, immobilised on SA sensor chip (950-1050 RU); analytes injected 2 min at 30 µl/min; 25°C; PBS, 0.05% Tween20, 1 mM MgCl2; 1:1 steady-state model; Biacore X100
# [6] = target: C3b purified from plasma of donor D1 by the novel direct method (human) (UniProt P01024); assay: as above
# [7] = target: C3b purified from plasma of donor D2 by the novel direct method (human) (UniProt P01024); assay: as above
# [8] = target: C3b purified from plasma of donor D3 by the novel direct method (human) (UniProt P01024); assay: as above
substance,measurement,setting,value
Bb fragment of Factor B in the alternative pathway convertase C3bBb (from UniProt P00751 260-764) (domain or fragment),koff,[1],0.0019 s⁻¹
same,koff,[2],0.002 s⁻¹
same,koff,[3],0.002 s⁻¹
same,koff,[4],0.0019 s⁻¹
complement Factor H CCPs 19-20 (domain or fragment),Kd,[5],9300 nM
same,Kd,[6],10500 nM
same,Kd,[7],10400 nM
same,Kd,[8],10600 nM
complement receptor 1 (CR1) complement control protein (CCP) domains 15-17 (domain or fragment),Kd,[5],476 nM
same,Kd,[6],485 nM
same,Kd,[7],650 nM
same,Kd,[8],438 nM
variable domain of the complement receptor of the immunoglobulin superfamily (domain or fragment),Kd,[5],754 nM
same,Kd,[6],860 nM
same,Kd,[7],944 nM
same,Kd,[8],795 nM
